Among the data in publication PMC6152284, “Cloning and Characterization of Two Iridoid Synthase Homologs from Swertia Mussotii” (Molecules : A Journal of Synthetic Chemistry and Natural …, 2017) are Km, kcat and kcat/Km values, retold here.

Substrate in series [1]: C/C(C=O)=C\CC/C(C)=C/C=O
Briefly: purified protein. The class given is biochemical, Swertia mussotii. Particulars: co-substrate NADPH, 20 mM MOPS pH 7.0, 40 °C, substrate stock contained 8-oxoneral isomer.

Substrate in series [2]: NC(=O)C1=CN([C@@H]2O[C@H](COP(=O)(O)OP(=O)(O)OC[C@H]3O[C@@H](n4cnc5c(N)ncnc54)[C@H](OP(=O)(O)O)[C@@H]3O)[C@@H](O)[C@H]2O)C=CC1
The series can be described thus: purified protein. The conditions noted are these: co-substrate 8-oxogeranial, 20 mM MOPS pH 7.0, 40 °C, varied: cofactor. The class given is biochemical, Swertia mussotii.

B1: SmIS1 (Swertia mussotii) (protein)
chain: MSWWWKRSVQAQNLPEKNQPNGVAETAGRYESVALVVGVTGIVGSSLAQVLKLPDTPGGPWKVYGVARRPCPAWLAKFHVEYIQCDVSNTEEAKTKLSPLKDVTHIFYVSWIGSEDCETNAVMFKNILYNIIPVAPNLKHISLQTGSKHYFGIFEEGSEAVPHESPYTEDLPRLNIPNFYHDLEDILFEETAKHGLTWCVQRPALIFGFSPCSLMNIVSTLSIYATICKHEKKPLVYPGSKASWNCYVDGADADLAAEHHIWAAVDPKAKNQVFNVKNGDVFKWKNVWKMLADEFEMEMVGYIEGNEQVSMAELMKDKDGVWDEIVKKHKLEDTKLKEIAAFWFADIAFSCVDLVMSVTKSREFGFLGFRDSMKSFKSCIHKMRDFKFIP
notes: pETMALc-H, N-terminal MBP fusion with 10 His (~88 kDa); E. coli BL21(DE3), purified
With B1, in the series “purified protein [1]” (MBP fusion), the Km stood at 7.29 ± 1.59 µM, the kcat was found to be 0.11 ± 0.007 s⁻¹ and the kcat/Km came out at 15600 ± 4350 M⁻¹ s⁻¹. Besides, in “purified protein [2]” (MBP fusion), the Km was 77.94 ± 6.03 µM, the kcat was 0.135 ± 0.01 s⁻¹ and the kcat/Km was 1732 ± 11.3 M⁻¹ s⁻¹.

B2: SmIS2 (Swertia mussotii) (protein)
chain: MSWWWTGAVAAAREKVYDERPKTSPSVALIIGVTGIVGNSLADILPLSDTPGGPWKVYGVARRPRPAWSEDHPVEYIQLDVYNAKETQSKLSPLTDITHIFWTTWANRPTEAECCQVNGAMLQNVIDAVLPNAPNLSHICIQTGHKHYIGPFETFGKIKPHETPFIEDVPRLDVPNFYYTLEDITLETCKKKEGLTWSVHRPAVIFGFSPYSMMNLIGSLCVYAAICKHENVPFTYPGTKGAWNCYSVASDADLIAEHQIWASVDPYAKNEAYNCSNGDLFKWKSLWKVLAEQFDLEYVEFDENQDYVSLAERMKDKGPVWDEIVKQNKLTPTKLEEVATFWFADVIFSGECMLDSMSKSKEHGFLGFRDTTKSLLSVVGKMKAHKIVP
notes: pET-28a, 6-His tags at N- and C-terminus (~46 kDa); E. coli BL21(DE3), purified
B2: in the series “purified protein [1]” (His-tagged), the Km turned out to be 54.37 ± 4.29 µM, the turnover number (kcat) was 0.034 ± 0.001 s⁻¹ and the kcat/Km worked out at 629 ± 75.9 M⁻¹ s⁻¹. For the same protein, in the series “purified protein [2]” (His-tagged), the Km is 41.83 ± 7.2 µM, the kcat was 0.026 ± 0.01 s⁻¹ and the kcat/Km was 628 ± 105 M⁻¹ s⁻¹.

What is called Km is the substrate concentration at which the rate is half of its maximum. As usually defined, the kcat is the number of substrate molecules converted per active site and unit of time at saturation. What is called kcat/Km is the turnover number divided by the Michaelis constant.
